According to US10428320B2, “Crystal structure of Staphylococcus aureus Autolysin E, method of producing the crystal and its use in screening methods” (J. Stefan Institute, priority 2015, dated 2019):
“Also recorded” adds a separate entry of the source.

Key:
[1] = Digestion of synthetic hexa-NAG substrate, products analyzed by mass spectroscopy; type: biochemical; details: mass spectroscopy of degradation products
Text: (§1) • AtlE is 259 amino acid long protein encoded by the SAV2307 gene loci in the genome of S. aureus strain Mu50. The truncated sequences of glucosaminidase domains of AtlE, lacking the first 34 residues and glu AtlA from S1012 onwards, include additional four amino acids (SAAA, i.e. Ser-Ala-Ala-Ala) that belong to the recognition site of TEV protease. The nucleotide sequences were amplified from the genomic DNA of S. aureus Mu50 using KOD Hot Start Polymerase and cloned into pMCSG 7 plasmid in the frame with N-terminal His-Tag as described [Eschenfeldt et al., 2009]. The mutants were prepared by the overlap extension method [Ho et al., 1989]. The proteins were expressed in BL21(DE3) E. coli expression strain grown in YZM5052 auto induction medium. To facilitate the expression of proteins in soluble form, the cells were initially grown at 37° C. When optical density (OD) measured at 600 nm reached the value of 1, the cells were transferred to 25° C. After 16 hours the cells were pelleted by centrifugation (15 minutes at 7000× g), re-suspended in the buffer A ([…] Tris, 0.4 M NaCl, pH 7.5) supplemented with 1 mg/ml of lysozyme, and frozen and disrupted by the freezing thawing cycles and sonication. The proteins were purified from the cell lysate on AKTAxpress FPLC system (GE Healthcare) using two-step purification protocol. […] The degradation products were analyzed by mass spectroscopy. […]

[2] = Digestion of synthetic tetrasaccharide substrate, products analyzed by mass spectroscopy; type: biochemical; details: mass spectroscopy of degradation products
Text: as §1

[3] = test system: S. aureus purified peptidoglycan; experiment: Degradation of Remazol Brilliant Blue labeled S. aureus peptidoglycan (cell wall substrate), colorimetric; type: biochemical, Staphylococcus aureus; details: mutants in comparison with the native enzyme
Text: • AtlE is 259 amino acid long protein encoded by the SAV2307 gene loci in the genome of S. aureus strain Mu50. The truncated sequences of glucosaminidase domains of AtlE, lacking the first 34 residues and glu AtlA from S1012 onwards, include additional four amino acids (SAAA, i.e. Ser-Ala-Ala-Ala) that belong to the recognition site of TEV protease. The nucleotide sequences were amplified from the genomic DNA of S. aureus Mu50 using KOD Hot Start Polymerase and cloned into pMCSG 7 plasmid in the frame with N-terminal His-Tag as described [Eschenfeldt et al., 2009]. The mutants were prepared by the overlap extension method [Ho et al., 1989]. The proteins were expressed in BL21(DE3) E. coli expression strain grown in YZM5052 auto induction medium. To facilitate the expression of proteins in soluble form, the cells were initially grown at 37° C. When optical density (OD) measured at 600 nm reached the value of 1, the cells were transferred to 25° C. After 16 hours the cells were pelleted by centrifugation (15 minutes at 7000× g), re-suspended in the buffer A ([…] Tris, 0.4 M NaCl, pH 7.5) supplemented with 1 mg/ml of lysozyme, and frozen and disrupted by the freezing thawing cycles and sonication. The proteins were purified from the cell lysate on AKTAxpress FPLC system (GE Healthcare) using two-step purification protocol. The first purification step was Ni^2+-affinity chromatography on HiTrap IMAC FF column (GE Healthcare) equilibrated in buffer A with 10 mM imidazole. […] 2. […] The degradation products were analyzed by mass spectroscopy. A single cleavage between the central NAG-NAM residues should indicate the classic N-acetyl-glucosaminidase activity by generating the NAM-NAG and NAM-NAGred disaccharides, whereas NAMred and NAG-NAM-NAGred would indicate the muraminidase activity. […] 3. Isolation of S. aureus Peptidoglycan • S. aureus cells were grown overnight in Brain Hearth Infusion Broth (BHI) (37° C., 250 rpm) pelleted by centrifugation (15 minutes at 6000× g), washed three times with the 30 mM Tris, 0.4 M NaCl buffer and then re-suspended in the same buffer. After heat inactivation, the insoluble pellet was re-suspended in 4% SDS and incubated 30 minutes at 80° C. After 30 minutes of centrifugation at 40,000× g, the pellet was re-suspended and washed six times in water. Proteins that remained associated with the peptidoglycan were digested overnight by incubation with trypsin (1 mg/ml) in 30 mM Tris, 0.4 M NaCl, 10 mM MgCl2, pH 7.5 buffer. After pelleting (30 minutes at 40000× g) peptidoglycan was treated overnight with 5 ml 40% aqueous hydrogen fluoride to remove teichoic acid, pelleted again (30 minutes at 40000× g) and washed extensively with water. Saturated suspension of the pure peptidoglycan solution in water was stored at −20° C. 4. Biochemical Peptidoglycan Degradation and Labeling with Remazol Brilliant Blue • For the colorimetric assays, peptidoglycan was labeled with Remazol Brilliant Blue as described [Odintsov et al., 2004]. In short, 50 ul of water suspension of Remazol Brilliant Blue labeled peptidoglycan was mixed with 10 ul of 1 M buffer solutions at pH of […] of 4 M NaCl, different amounts of enzymes and filled with water to the final volume […]. The final concentration of buffer and NaCl in the reaction mixture was therefore 100 mM.

Molecule	activity against the cell wall substrate (S. aureus peptidoglycan) [3]	also measured
AtlE: recombinant glucosaminidase domain of Autolysin E of S. aureus Mu50, encoded by SAV2307 (protein) SAAANDVNYSFDEAVSMQQGKGIVQTKEEDGKFVEANNNEIAKAMTISHKDNDMKYMDITEKVPMSESEVNQLLKGKGILENRGKVFLEAQEKYEVNVIYLVSHALVETGNGKSELAKGIKDGKKRYYNFFGIGAFDSSAVRSGKSYAEKEQWTSPDKAIIGGAKFIRNEYFENNQLNLYQMRWNPENPAQHQYASDIRWADKIAKLMDKSYKQFGIKKDDIRQTYYK	–	cleavage of (NAG)6 [1]: not degraded at all; also recorded: cannot; digestion products / specificity on (NAM-NAG)2red [2]: only NAM-NAGred with Mw of 499.21 Da was found
E138A (protein) MKKNFKLRISTLLLIVILVVFAVLLIVNETKLFKNDVNYSFDEAVSMQQGKGIVQTKEEDGKFVEANNNEIAKAMTISHKDNDMKYMDITEKVPMSESEVNQLLKGKGILENRGKVFLEAQEKYEVNVIYLVSHALVATGNGKSELAKGIKDGKKRYYNFFGIGAFDSSAVRSGKSYAEKEQWTSPDKAIIGGAKFIRNEYFENNQLNLYQMRWNPENPAQHQYASDIRWADKIAKLMDKSYKQFGIKKDDIRQTYYK	abolished activity	activity against the cell wall substrate (S. aureus peptidoglycan) ([3]; listed as E138): zero activity
D167A (protein) MKKNFKLRISTLLLIVILVVFAVLLIVNETKLFKNDVNYSFDEAVSMQQGKGIVQTKEEDGKFVEANNNEIAKAMTISHKDNDMKYMDITEKVPMSESEVNQLLKGKGILENRGKVFLEAQEKYEVNVIYLVSHALVETGNGKSELAKGIKDGKKRYYNFFGIGAFASSAVRSGKSYAEKEQWTSPDKAIIGGAKFIRNEYFENNQLNLYQMRWNPENPAQHQYASDIRWADKIAKLMDKSYKQFGIKKDDIRQTYYK	halved activity	–
D227A (protein) MKKNFKLRISTLLLIVILVVFAVLLIVNETKLFKNDVNYSFDEAVSMQQGKGIVQTKEEDGKFVEANNNEIAKAMTISHKDNDMKYMDITEKVPMSESEVNQLLKGKGILENRGKVFLEAQEKYEVNVIYLVSHALVETGNGKSELAKGIKDGKKRYYNFFGIGAFDSSAVRSGKSYAEKEQWTSPDKAIIGGAKFIRNEYFENNQLNLYQMRWNPENPAQHQYASAIRWADKIAKLMDKSYKQFGIKKDDIRQTYYK	halved activity	–
E145A (protein) MKKNFKLRISTLLLIVILVVFAVLLIVNETKLFKNDVNYSFDEAVSMQQGKGIVQTKEEDGKFVEANNNEIAKAMTISHKDNDMKYMDITEKVPMSESEVNQLLKGKGILENRGKVFLEAQEKYEVNVIYLVSHALVETGNGKSALAKGIKDGKKRYYNFFGIGAFDSSAVRSGKSYAEKEQWTSPDKAIIGGAKFIRNEYFENNQLNLYQMRWNPENPAQHQYASDIRWADKIAKLMDKSYKQFGIKKDDIRQTYYK	activity of native enzyme; also recorded: activity equivalent to the native enzyme	–
Y201A (protein) MKKNFKLRISTLLLIVILVVFAVLLIVNETKLFKNDVNYSFDEAVSMQQGKGIVQTKEEDGKFVEANNNEIAKAMTISHKDNDMKYMDITEKVPMSESEVNQLLKGKGILENRGKVFLEAQEKYEVNVIYLVSHALVETGNGKSELAKGIKDGKKRYYNFFGIGAFDSSAVRSGKSYAEKEQWTSPDKAIIGGAKFIRNEAFENNQLNLYQMRWNPENPAQHQYASDIRWADKIAKLMDKSYKQFGIKKDDIRQTYYK	completely inactive	activity against the cell wall substrate (S. aureus peptidoglycan) ([3]; listed as Y201): zero activity; also recorded: abolished the enzymatic activity
